For test [1], the target named is T1, human CD94 expressed on cells (human primary NK cells in PBMCs; HEK cells expressing human CD94) (human, UniProt Q13241 1-179).
T1 construct: whole, on cells; also called KLRD1; Natural killer cells antigen CD94
T1 sequence (looked up): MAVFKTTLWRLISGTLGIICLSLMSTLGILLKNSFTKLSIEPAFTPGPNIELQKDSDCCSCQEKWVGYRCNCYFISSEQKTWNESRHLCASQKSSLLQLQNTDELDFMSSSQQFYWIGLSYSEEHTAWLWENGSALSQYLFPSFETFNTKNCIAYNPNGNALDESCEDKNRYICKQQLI
In words: HLA-E tetramer blocking assay, flow cytometry on CD3-CD56+ NK cells in healthy donor PBMCs; antibody at one saturating concentration, blocked ligand PE-labelled HLA-E tetramer; percent blocking = 100-((percent HLA-E positive with antibody)/(percent HLA-E positive with isotype)*100). Here is the method: Healthy donor PBMCs were incubated with anti-CD94 antibodies. PE labeled HLA-E tetramer was then incubated with the cell and antibody mixture, and detected using flow cytometry. For HP-3B1, 131412, 12K45, DX22, 1M4 and 1E4, 2.5 μl of HLA-E tetramer reagent was used, while 5 μl was used for 18H3 and HP-3D9. Saturating concentrations of each antibody was used in this assay. The percent blocking was calculated as 100−((percent HLA-E positive for anti-CD94 antibody)/(percent HLA-E positive for isotype)*100).
Healthy donor PBMCs were seeded in 96-well plates at a density of 100,000 cells per well, incubated with human Fc block (Biolegend) and cell viability dye (Thermo Fisher) for 30 minutes on ice and protected from light. The cells were washed once with FACS buffer (PBS with 2% IgG low FBS). anti-CD94 antibodies at EC80 concentrations were incubated with cells for 30 minutes on ice and protected from light. After incubation with the anti-CD94 antibodies, the cells were washed and incubated with HLA-E tetramer PE (Creative Biolabs), anti-CD3 pacific blue-labelled, and anti-CD56 FITC-labelled antibodies (Biolegend) for 30 minutes on ice and protected from light. The cells then received a final wash in FACS buffer before quantification on the Cytoflex (Beckman Coulter). All data acquisition and fluorescence compensation were performed using CytoFlex (Beckman Coulter, Atlanta, GA). Data analysis was performed using FlowJo software. NK cells were identified through gating on lymphocytes on the forward and side scatter, followed by doublet and dead cell exclusion, and gated on the CD3−CD56+ population. HLA-E expression was then quantified on the CD3−CD56+NK cell population. Percent blocking was calculated as 100−((percent HLA-E positive for anti-CD94 antibody)/(percent HLA-E positive for isotype)*100).

The target in test [2] is T1, human CD94 expressed on cells (human …). In words: flow cytometry titration on CD3-CD56+ NK cells in healthy donor PBMCs; 'Affinity on Human NK Cells'; the filing derives these affinities as EC50 of titration curves (the 2.6nM of 18H3 is labelled EC50 in FIG. 1). Here is the method: Healthy donor PBMCs were seeded in 96 well plates at a density of 100,000 cells per well, incubated with human Fc block (Biolegend) and cell viability dye (Thermo Fisher) for 30 minutes on ice and protected from light. The cells were washed once with FACS buffer (PBS with 2% IgG low FBS). anti-CD94 antibodies at concentrations of 100 nM to 0.046 nM, 1:3-fold dilutions, were incubated with cells for 30 minutes on ice and protected from light. The cells were then washed and incubated with goat IgG anti-mouse Fey specific AF647 secondary antibody or goat (Fab)2 fragment anti-human Fey specific AF647 secondary antibody (Jackson immuno research), anti-CD3 pacific blue-labelled and anti-CD56 FITC-labelled antibodies (Biolegend) for 30 minutes on ice and protected from light. After incubation, the cells received a final wash in FACS buffer before quantification on the Cytoflex (Beckman Coulter). All data acquisition and fluorescence compensation were performed using CytoFlex (Beckman Coulter, Atlanta, GA). Data analysis was performed using FlowJo software. NK cells were identified through gating on lymphocytes on the forward and side scatter, followed by doublet and dead cell exclusion, and gated on the CD3−CD56+ population. CD94 expression was then quantified on the CD3−CD56+NK cell population. […]
The affinity of the antibody clones was also assessed by flow cytometry analysis.
For orientation: In flow cytometry, cells or beads pass a laser one at a time.

The target is the same in test [3]. In words: cell-based or functional assay.
The target in test [4] is T2, cynomolgus CD94 expressed on HEK293 cells (cynomolgus monkey, UniProt Q68VD4 1-179).
T2 construct: also called cyno-CD94; cynomolgus monkey CD94
T2 sequence: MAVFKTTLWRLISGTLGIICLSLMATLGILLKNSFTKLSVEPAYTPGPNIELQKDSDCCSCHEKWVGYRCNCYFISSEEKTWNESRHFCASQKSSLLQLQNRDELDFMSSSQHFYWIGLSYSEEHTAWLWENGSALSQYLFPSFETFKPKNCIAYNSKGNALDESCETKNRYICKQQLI
In words: flow cytometry, hybridoma supernatant on cynomolgus CD94-expressing HEK293 cells. The source says: Anti-CD94 hybridoma supernatants were screened on cynomolgus CD94-expressing HEK293 cells by flow cytometry for cross-reactivity to cynomolgus CD94. HP-3D9 is a commercial anti-CD94 antibody that was used as a negative control. Mouse IgG1, IgG2a, IgG2b and IgG3 were used as negative controls. […] Commercially available anti-CD94 antibodies were used to test cynomolgus cross-reactivity. 18H3 was used as a positive control. The MFI of each antibody was normalized to the MFI of its respective isotype.
Cynomolgus CD94-expressing HEK293 cells were seeded in 96-well plates at a density of 100,000 cells per well, incubated with cell viability dye (Thermo Fisher) for 30 minutes on ice and protected from light. The cells were washed once with FACS buffer (PBS with 2% IgG low FBS). Hybridoma supernatants, anti-CD94 antibodies and isotype controls were incubated with cells for 30 minutes on ice and protected from light. […] After incubation, the cells received a final wash in FACS buffer before quantification on the Cytoflex (Beckman Coulter). All data acquisition and fluorescence compensation were performed using CytoFlex (Beckman Coulter, Atlanta, GA). […] CD94 expression was then quantified on this population. […]

B1: anti-CD94 antibody clone 1E4 (antibody, V domains shown)
VH: QVTLRESGPALVKPTQTLTLTCTFSGFSLSTSDLCVSWIRQPPGKALEWLALIDWNDDKYYSTSLQTRLTISKDTSKNQVVLTMTNMDPVDTATYYCARTIAAAGPYDAFDIWGQGTMVTVSS
VL: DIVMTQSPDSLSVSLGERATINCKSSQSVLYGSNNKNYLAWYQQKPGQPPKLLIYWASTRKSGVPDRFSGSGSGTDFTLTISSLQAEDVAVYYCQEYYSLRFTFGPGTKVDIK
notes: also called fucosylated 1E4
Consider B1, for which the “HLA-E Blocking” value in test [1] is 0%. In test [2], the EC50 (usually the concentration giving half of the maximal effect) is 75 nM. In addition, in test [3], the “percent decrease in MFI (antibody internalization assay), comparing 0.5 hours to 24 hours at 37° C.” value turned out to be 18%. The binding result in test [4] is on record as “binds”.

The values are drawn from patent US20250197505A1 (DREN BIO, published 2025).
